Measured values published in US20140072544A1, “POLYBACTERIAL PREPARATION WITH HEALTH BENEFITS: ANTIOXIDANT EFFECT, REDUCTION OF CHOLESTEROL CONCENTRATION, ANTI-INFLAMMATORY IMMUNOMODULATING EFFECT AND RELEASE OF BIOACTIVE PEPTIDES INHIBITING ANGIOTENSIN-CONVERTING ENZYME” (LB BULGARICUM PLC, priority 2011, published 2014).

Molecular target: angiotensin-converting enzyme (ACE) (Homo sapiens, UniProt P12821)
Test: ACE-inhibiting activity of peptide extracts
Format: biochemical
Conditions: purified single peptide released by L. helveticus A1 (HPLC fractionation, ion exchange)
Description: Purified strains with inoculum of 0.1% are incubated for 18 hours in 9% skimmed milk at 37° C. After adjusting the pH to 4.3 with 50% lactic acid the samples are centrifuged (5000 g, 10 min). Supernatant is dosed at reverse-phase cartridge and washed with water. The process is followed by elution with 60% acetonitrile in 0.1% trifluoroacetic acid and then evaporation and reconstitution of the resulting extract. The extract or its dilutions are analyzed for inhibition of ACE.
A total peptide extract is prepared. Enzymatic reaction is carried out by a conventional test, but using different dilutions of peptide extracts as their volume is 20 μl. The enzyme solution was 40 μl with an activity of 0.1 U/ml. The substrate hipuril-histidil-leucine is dissolved in borate buffer at pH 8.3 and has a volume of 190 μl. The final concentration of the substrate is 6 mM, and those of sodium chloride is 300 mM. The reaction is conducted at 37° C. for 30 minutes. The seizing is performed with 100 microliters of 4 n HCl, and the extraction of the freed hippuric acid is done with 1 ml of ethyl acetate. After evaporation of the solvent, the residue is dissolved in 1 ml of water and tested spectrophotometrically at 228 nm. […]
where A is the absorbance under the upper reaction, C is the absorbance without enzyme, B is the absorbance without the involvement of peptide extracts. […]

Chain of angiotensin-converting enzyme (ACE) (P12821 30-1306, species assumed): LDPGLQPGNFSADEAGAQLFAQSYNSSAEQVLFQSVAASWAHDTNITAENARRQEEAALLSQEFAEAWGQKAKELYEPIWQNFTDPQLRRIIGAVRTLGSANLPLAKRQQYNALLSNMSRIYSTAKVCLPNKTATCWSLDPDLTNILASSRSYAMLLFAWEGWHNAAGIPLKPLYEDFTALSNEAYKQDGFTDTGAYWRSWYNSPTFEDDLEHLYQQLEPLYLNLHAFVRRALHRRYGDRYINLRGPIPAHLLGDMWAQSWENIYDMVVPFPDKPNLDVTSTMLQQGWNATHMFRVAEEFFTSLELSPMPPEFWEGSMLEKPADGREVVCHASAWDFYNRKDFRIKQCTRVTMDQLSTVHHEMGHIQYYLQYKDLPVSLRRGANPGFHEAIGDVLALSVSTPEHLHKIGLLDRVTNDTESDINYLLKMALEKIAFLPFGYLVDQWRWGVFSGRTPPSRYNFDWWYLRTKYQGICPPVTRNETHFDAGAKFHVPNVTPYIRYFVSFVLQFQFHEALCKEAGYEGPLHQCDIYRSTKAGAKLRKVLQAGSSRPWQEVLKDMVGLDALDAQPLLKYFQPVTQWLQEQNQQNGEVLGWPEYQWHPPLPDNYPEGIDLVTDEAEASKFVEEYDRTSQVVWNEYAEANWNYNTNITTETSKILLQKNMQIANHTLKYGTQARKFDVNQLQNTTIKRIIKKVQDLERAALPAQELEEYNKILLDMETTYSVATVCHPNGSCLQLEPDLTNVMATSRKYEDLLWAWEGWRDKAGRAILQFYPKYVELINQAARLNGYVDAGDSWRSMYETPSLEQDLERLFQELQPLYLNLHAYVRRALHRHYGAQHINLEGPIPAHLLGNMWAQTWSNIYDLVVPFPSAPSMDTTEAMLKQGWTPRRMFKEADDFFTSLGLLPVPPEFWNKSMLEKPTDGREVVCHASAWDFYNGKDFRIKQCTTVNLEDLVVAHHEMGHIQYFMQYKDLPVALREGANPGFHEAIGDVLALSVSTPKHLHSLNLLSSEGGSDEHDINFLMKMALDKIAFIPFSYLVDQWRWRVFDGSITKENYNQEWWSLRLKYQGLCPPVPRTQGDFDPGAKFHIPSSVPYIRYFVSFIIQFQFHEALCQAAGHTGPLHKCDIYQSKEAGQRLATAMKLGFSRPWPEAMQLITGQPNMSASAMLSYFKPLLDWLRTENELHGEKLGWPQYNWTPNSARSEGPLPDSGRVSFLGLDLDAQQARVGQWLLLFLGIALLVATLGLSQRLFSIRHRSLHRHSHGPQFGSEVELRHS

**Q.** For “Ala-Leu-Pro-Met (ALPM; printed: Ala-Leu-Pro-Met) [anti-ACE peptide released by the strain L. helveticus A1, purified from fermented milk]”, which Anti-ACE activity % is on record?
**A.** The Anti-ACE activity % was 78.0%.
